Results reported in patent US20230002481A1 (Chugai, published 2023).
Each block holds one binder with its values, some of them ahead of it.

Target: T1, recombinant human C1r2s2 tetramer (human, UniProt P09871 16-688; P00736 18-705)
T1 construct: Heterotetramer of two C1r and two C1s chains, co-expressed in FreeStyle293-F cells; also called human C1r2s2s
T1 chain 1: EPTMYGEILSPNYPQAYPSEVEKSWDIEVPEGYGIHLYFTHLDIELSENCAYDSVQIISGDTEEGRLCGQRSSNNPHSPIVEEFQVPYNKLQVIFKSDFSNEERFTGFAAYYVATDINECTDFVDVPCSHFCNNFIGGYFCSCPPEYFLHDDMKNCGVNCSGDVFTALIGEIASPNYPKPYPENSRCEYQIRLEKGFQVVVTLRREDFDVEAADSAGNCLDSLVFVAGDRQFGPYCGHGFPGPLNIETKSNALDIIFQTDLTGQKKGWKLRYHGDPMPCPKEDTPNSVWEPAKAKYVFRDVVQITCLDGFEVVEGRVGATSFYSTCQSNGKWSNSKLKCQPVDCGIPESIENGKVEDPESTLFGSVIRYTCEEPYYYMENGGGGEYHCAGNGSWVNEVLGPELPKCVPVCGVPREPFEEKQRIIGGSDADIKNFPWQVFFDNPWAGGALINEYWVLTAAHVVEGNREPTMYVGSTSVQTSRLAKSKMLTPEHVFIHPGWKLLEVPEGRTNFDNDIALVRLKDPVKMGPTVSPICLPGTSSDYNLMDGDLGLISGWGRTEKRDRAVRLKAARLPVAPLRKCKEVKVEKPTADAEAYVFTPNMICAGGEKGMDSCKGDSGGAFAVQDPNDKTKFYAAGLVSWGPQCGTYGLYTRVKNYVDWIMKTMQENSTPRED
T1 chain 2: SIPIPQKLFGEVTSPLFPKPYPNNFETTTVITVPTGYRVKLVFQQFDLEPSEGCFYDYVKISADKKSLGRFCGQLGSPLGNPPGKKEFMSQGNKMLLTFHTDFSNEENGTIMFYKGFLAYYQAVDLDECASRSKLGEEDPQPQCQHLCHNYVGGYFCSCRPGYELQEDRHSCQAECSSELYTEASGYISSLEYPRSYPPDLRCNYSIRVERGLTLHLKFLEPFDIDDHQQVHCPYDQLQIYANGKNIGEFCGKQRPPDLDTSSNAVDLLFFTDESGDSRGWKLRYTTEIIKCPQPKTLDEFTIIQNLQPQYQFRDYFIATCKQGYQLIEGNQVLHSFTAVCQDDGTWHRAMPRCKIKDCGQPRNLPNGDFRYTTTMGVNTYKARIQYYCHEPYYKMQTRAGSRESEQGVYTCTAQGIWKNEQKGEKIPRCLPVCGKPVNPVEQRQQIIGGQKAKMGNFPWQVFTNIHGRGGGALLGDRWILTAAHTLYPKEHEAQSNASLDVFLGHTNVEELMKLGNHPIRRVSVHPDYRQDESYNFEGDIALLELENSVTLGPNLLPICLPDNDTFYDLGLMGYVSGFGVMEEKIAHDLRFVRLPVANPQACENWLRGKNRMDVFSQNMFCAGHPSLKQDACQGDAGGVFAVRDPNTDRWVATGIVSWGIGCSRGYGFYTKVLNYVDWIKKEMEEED
Test: SPR (Biacore), pH5.8*: dissociation at pH5.8 after association and dissociation at pH7.4, 37 C, Scrubber fit
Protocol: The kinetic parameters of anti-C1s antibodies against recombinant human C1s (as described in PCT/JP2018/042054), human C1r2s2, and cyno C1r2s2 His/Flag (also referred as cyno C1r2s2 in the Table and Figures) were assessed at pH7.4 and pH5.8, at 37 degrees C. using BIACORE (registered trademark) T200 instrument (GE Healthcare) or BIACORE 4000 (GE Healthcare). ProAG (Pierce) was immobilized onto a CM4 sensorchip using amine coupling kit (GE Healthcare) according to the recommended settings by GE Healthcare. Antibodies and analytes were diluted into the respective running buffers, ACES pH7.4 and pH5.8 (20 mM ACES, 150 mM NaCl, 1.2 mM CaCl₂, 1 mg/ml BSA, 1 mg/ml CMD, 0.05% Tween 20, 0.005 w/v % NaN₃). Each antibody was captured onto the sensor surface by ProA/G. Antibody capture levels were typically 100-200 resonance units (RU). Then, recombinant C1s was injected at concentrations of 25 and 50 nM followed by dissociation at pH7.4 and pH5.8. The surface was regenerated using 10 mM Glycine-HCl, pH1.5. Kinetic parameters at neutral pH conditions and acidic conditions were determined by fitting the sensorgrams with 1:1 binding model using BIACORE (registered trademark) T200 Evaluation software, version 2.0 (GE Healthcare) or BIACORE 4000 Evaluation software. The dissociation rate at pH5.8 (after dissociation at pH7.4, indicated as pH5.8* in TABLE 2) was determined by processing and fitting data using Scrubber 2.0 (BioLogic Software) curve fitting software. The association rate (ka), dissociation rate (kd), binding affinity (KD) at pH7.4 and pH5.8 condition, and dissociation rate (kd) at pH5.8* condition of the antibodies are listed in TABLE 2. Some kinetic parameters of COS0098pHv1 in acidic condition were not correctly calculated because of its weak binding response.
Also, to observe the cross-reactivity of anti-C1s antibodies against human C1r2s2 and cyno C1r2s2 (cyno C1r2s2 His/Flag), BIACORE (registered trademark) kinetics analysis was performed.

koff: 0.107 s⁻¹
B1: COS0098pHv1 (antibody, V domains shown)
VH: QVQLVQSGAEVKKPGSSVKVSCKASGHTFSKYTVSWIRQPPGKGLEWIGIINTGGSAYPATWAKGRVTITADESTSTAYMELSSLRSEDTAVYYCARGAGDTDYTNLWGQGTLVTVSS
VL: DIQMTQSPSSLSASVGDRVTITCQASENIYSALAWYQQKPGQPPKLLIYGASQLESGVPSRFSGSGSGTDFTLTISSLQPEDFATYYCQQYYFTSHTFGQGTKVEIK
notes: Humanized, optimized pH-dependent variant of COS0098bb

koff: 0.000909 s⁻¹
B2: COS0098bb (antibody, V domains shown)
VH: QSVEESGGRLVTPGTPLTLTCTVSGFSLTKYTVSWVRQAPGKGLEWIGIINTGGSAYYATWAKGRFTFSKTSTTVDLQITSPTTEDTATYFCARGNGDTDYTNLWGPGTLVTVSS
VL: QVLTQTPSSVSEPVGGTVTINCQASENIYSALAWYQQKPGQPPKLLIYGASNLESGVPSRFKGSGSGTQFTLTISDLECADAATYYCQQYYFTSSTFGGGTKVEIK
notes: Anti-C1s rabbit antibody, parent of COS0098pHv1; the antibody was captured by ProA/G; also called anti-C1s antibody COS0098bb
